Key:
mononuclear cells (PBMC) = experiment: Cytokines (IFN-β, IL-4) in PBMC culture supernatants, ELISA; assay type: cell-based, human; conditions: 5 μg/ml LmPDI, 48 hours, small sample of individuals
Description: Cytokines (IFN-β, IL-4) in PBMC culture supernatants were induced by incubating mononuclear cells for 48 hours with the same concentration of LmPDI and assaying by means of an ELISA test using human anti-IL-4 and anti-IFN-β monoclonal antibodies (Pharmingen, San Diego, Calif.).

scrambled RNase A = experiment: Reactivation of scrambled RNase A in the presence of recombinant LmPDI protein (PDI activity); assay type: biochemical; conditions: 1.4 μM recombinant LmPDI, 30 minutes at 25° C., compared with bovine PDI; FIG. 4
Description: Scrambled RNase A (8 μM) was incubated in a buffer containing 4.5 mM (cCMP), 1 mM glutathione GSH, 0.2 mM glutathione disulfide GSSH, 2 mM EDTA and 100 mM Tris-HCl pH 8 in the presence of bovine serum albumin (BSA) (1.4 μM) as a negative control, bovine protein disulfide-isomerase (1.4 μM) as the positive control, or recombinant LmPDI (1.4 μM) for 30 minutes at 25° C. RNase A reactivation was determined by measuring the RNase A activity at 296 nm every 5 minutes for 30 minutes (Lyles and Gilbert, 1991).
20 mg of purified ribonuclease (RNase A) was scrambled at ambient temperature for 18 hours in a buffer containing 0.15 M of DTT, 6 M of guanidine-HCl and 0.1 M of Tris-HCl at a pH of 8.6 before being purified on a Sephadex G-25 column equilibrated in 0.01 M HCl. The concentration of scrambled RNase A fractions was determined using an extinction coefficient of 9200 M^−1 cm^−1 at 275 nm. Thu fractions were stored at −80° C. for two weeks.
Scrambled RNase A (8 μM) was incubated in a buffer containing 4.5 mM cCMP, 1 mM glutathione GSH, 0.2 mM glutathione disulfide GSSH, 2 mM EDTA and 100 mM of Tris-HCl pH 8 in the presence of bovine serum albumin (BSA) (1.4 μM) as a negative control, bovine protein disulfide-isomerase (1.4 μM) as a positive control, or recombinant LmPDI (1.4 μM) for 30 minutes at 25° C. […]

mononuclear cells = experiment: In vitro proliferation of mononuclear cells from individuals of a ZCL region, tritiated thymidine incorporation; assay type: cell-based, human; conditions: 5 μg/ml LmPDI, 5 days of culture, immune individuals (positive SLA test); FIG. 8
Description: The lymphomonocytary cells were recovered, washed by 3 successive centrifuge runs with RPMI-PS/Glu medium (30 ml then twice 10 ml) then counted and incubated at a concentration of 10^6 cells/ml of medium in the presence or absence of a concentration of 5 μg/ml of LmPDI. After 5 days of culture, lymphocyte stimulation was estimated by incorporating tritiated thymidine. The result is expressed in CPM.
L. major LmPDI, because of its high expression during the infectious stage of the parasite, could be a target for a cellular immune response. In order to verify the pertinence of this hypothesis, the capacity of LmPDI to induce a cellular immune response was evaluated by means of experiments on the proliferation of mononuclear cells obtained from individuals having active lesions or ZCL antecedents.
This study was carried out in 37 individuals living at El Guettar (southern Tunisia) for whom the results of the cellular proliferation test against total antigens from the parasite (SLA, a test indicating prior contact with the parasite) was available. These individuals were divided up as follows:
Mononuclear cells comprising lymphocytes and monocytes were separated from peripheral blood by centrifuging on a Ficoll/Hypaque gradient (Pharmacia, Uppsala, Sweden).

B1: LmPDI: recombinant protein disulfide isomerase of Leishmania major, SEQ ID No: 3, produced in E. coli; vaccine candidate (protein)
chain: MAEVQVATKDNFDKVVIGDLTLVKFYAPWCGHCKTLAPEFVKAADMLAGIATLAEVDCTKEESLAEKYEIKGFPTLYIFRNGEKVKIYDGPRTAAGIASYMKAHVGPSMKAISTAEELEELKKETFPVCVVKTASTDSEMASMITKVADSLRSQMNFVLVTDAAISPNDAMESVTVYRKNAEREAYTGATPMTAESVKSFLTSAVLDYFGELGQESFQKYMEANKDKPLGWVFIDKNTDSALKGSLVAVAEKYRSQVLLTYIDGDQYRPVSRQLGIPEDAKFPAFVVDFERRHHVMGTDTPVTSESVAAFVEKYVKGETKQTVMSDAIPAKETVNGLTTVVGQTFAKYTDGTQNVMLLFYAPWCGHCKKLHPVYDKVAKSFESENVIIAKMDATTNDFDREKFEVSGFPTIYFIPAGKPPIVYEGGRTADEIQVFVKSHLTASAAPSGGPSGNSEEEDLLEHHHHHH
modifications: His6 tag
notes: vaccine candidate
- IFN-β in the supernatant from stimulated cells (mononuclear cells (PBMC)): significant amounts
- IL-4 in the supernatant from stimulated cells (mononuclear cells (PBMC)): absence
- restoration of RNase A activity (scrambled RNase A): capable of restoring RNase A activity
- proliferation of mononuclear cells (mononuclear cells): significant proliferation
